# Laboratory results published in patent US20190241648A1 (STATEN BIOTECHNOLOGY B V, published 2019).
# Ends that are not written are not given here.
# T1: ApoC3 peptide P69A (human, thioether (positions not given here); not fully specified (bridges); also: thioether from modified N-terminus to C-terminal Cys (Cys not in chain))
# T1 peptide: DKFSEFWDLDAEV
# T2: ApoC3 peptide K60T (human, cyclic (thioether))
# T2 peptide: DTFSEFWDLDPEV
# T3: ApoC3 peptide P69Q (human, not fully specified; cyclic (thioether))
# T3 peptide: DKFSEFWDLDQEV
# T4: ApoC3 peptide W65A (human, not fully specified; cyclic (thioether))
# T4 peptide: DKFSEFADLDPEV
# T5: ApoC3 peptide F61K (human, cyclic (thioether))
# T5 peptide: DKKSEFWDLDPEV
# T6: ApoC3 peptide V71R (human, not fully specified; cyclic (thioether))
# T6 peptide: DKFSEFWDLDPER
# T7: ApoC3 peptide E70D (human, cyclic (thioether))
# T7 peptide: DKFSEFWDLDPDV
# T8: ApoC3 peptide P69S (human, not fully specified; cyclic (thioether))
# T8 peptide: DKFSEFWDLDSEV
# T9: ApoC3 peptide D66T (human, not fully specified; cyclic (thioether))
# T9 peptide: DKFSEFWTLDPEV
# T10: ApoC3 peptide L67C (human, cyclic (thioether))
# T10 peptide: DKFSEFWDCDPEV
# T11: ApoC3 peptide D66A (human, not fully specified; cyclic (thioether))
# T11 peptide: DKFSEFWALDPEV
# T12: ApoC3 peptide V71D (human, thioether (positions not given here); also: cyclic (thioether), ring places not given here)
# T12 peptide: DKFSEFWDLDPED
# T13: ApoC3 peptide F64M (human, thioether (positions not given here); not fully specified (bridges); also: cyclic (thioether), positions not given here)
# T13 peptide: DKFSEMWDLDPEV
# T14: ApoC3 peptide E63P (human, cyclic (thioether))
# T14 peptide: DKFSPFWDLDPEV
# T15: ApoC3 peptide E70Y (human, cyclic (thioether))
# T15 peptide: DKFSEFWDLDPYV
# T16: ApoC3 peptide E70H (human, cyclic (thioether))
# T16 peptide: DKFSEFWDLDPHV
# T17: ApoC3 peptide D66V (human, not fully specified; cyclic (thioether))
# T17 peptide: DKFSEFWVLDPEV
# T18: ApoC3 peptide D66H (human, not fully specified; cyclic (thioether))
# T18 peptide: DKFSEFWHLDPEV
# T19: ApoC3 peptide L67Q (human, thioether (positions not given here); not fully specified (bridges); also: thioether between a C-terminal Cys side chain and a modified N-terminus, the Cys is not in the chain)
# T19 peptide: DKFSEFWDQDPEV
# T20: ApoC3 peptide F64D (human, cyclic (thioether))
# T20 peptide: DKFSEDWDLDPEV
# T21: ApoC3 peptide K60R (human, cyclic (thioether))
# T21 peptide: DRFSEFWDLDPEV
# T22: ApoC3 peptide V71K (human, thioether (positions not given here); also: cyclic (thioether), ring places not given here)
# T22 peptide: DKFSEFWDLDPEK
# T23: ApoC3 peptide E70P (human, cyclic (thioether))
# T23 peptide: DKFSEFWDLDPPV
# T24: ApoC3 peptide K60P (human, cyclic (thioether))
# T24 peptide: DPFSEFWDLDPEV
# T25: ApoC3 peptide E70W (human, cyclic (thioether))
# T25 peptide: DKFSEFWDLDPWV
# T26: ApoC3 peptide W65F (human, not fully specified; cyclic (thioether))
# T26 peptide: DKFSEFFDLDPEV
# T27: ApoC3 peptide F64L (human, thioether (positions not given here); not fully specified (bridges); also: cyclic (thioether), positions not given here)
# T27 peptide: DKFSELWDLDPEV
# T28: ApoC3 peptide W65N (human, not fully specified; cyclic (thioether))
# T28 peptide: DKFSEFNDLDPEV
# T29: ApoC3 peptide E63M (human, cyclic (thioether))
# T29 peptide: DKFSMFWDLDPEV
# T30: ApoC3 peptide F64E (human, cyclic (thioether))
# T30 peptide: DKFSEEWDLDPEV
# T31: ApoC3 peptide S62D (human, not fully specified; cyclic (thioether))
# T31 peptide: DKFDEFWDLDPEV
# T32: ApoC3 peptide K60W (human, cyclic (thioether))
# T32 peptide: DWFSEFWDLDPEV
# Columns and labels:
# Experiment in all cases: cyclic peptide substitution array
# ApoC3 peptide P69A = target: T1, ApoC3 peptide P69A
# How it was run: (§1)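 Peptide microarrays incubated with antibody samples, then stained with goat anti-human IgG (Fc) DyLight680 and anti-HA DyLight800 control antibodies, scanned at intensity 7/7 (red/green). Secondary-only pre-stain checked background binding; framing HA peptides served as quality control; substitution effects read as changes in spot intensity.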
# ApoC3 peptide K60T = target: T2, ApoC3 peptide K60T
# How it was run: as §1
# ApoC3 peptide P69Q = target: T3, ApoC3 peptide P69Q
# How it was run: as §1
# ApoC3 peptide W65A = target: T4, ApoC3 peptide W65A
# How it was run: as §1
# ApoC3 peptide F61K = target: T5, ApoC3 peptide F61K
# How it was run: as §1
# ApoC3 peptide V71R = target: T6, ApoC3 peptide V71R
# How it was run: as §1
# ApoC3 peptide E70D = target: T7, ApoC3 peptide E70D
# How it was run: as §1
# ApoC3 peptide P69S = target: T8, ApoC3 peptide P69S
# How it was run: as §1
# ApoC3 peptide D66T = target: T9, ApoC3 peptide D66T
# How it was run: as §1
# ApoC3 peptide L67C = target: T10, ApoC3 peptide L67C
# How it was run: as §1
# ApoC3 peptide D66A = target: T11, ApoC3 peptide D66A
# How it was run: as §1
# ApoC3 peptide V71D = target: T12, ApoC3 peptide V71D
# How it was run: as §1
# ApoC3 peptide F64M = target: T13, ApoC3 peptide F64M
# How it was run: as §1
# ApoC3 peptide E63P = target: T14, ApoC3 peptide E63P
# How it was run: as §1
# ApoC3 peptide E70Y = target: T15, ApoC3 peptide E70Y
# How it was run: as §1
# ApoC3 peptide E70H = target: T16, ApoC3 peptide E70H
# How it was run: as §1
# ApoC3 peptide D66V = target: T17, ApoC3 peptide D66V
# How it was run: as §1
# ApoC3 peptide D66H = target: T18, ApoC3 peptide D66H
# How it was run: as §1
# ApoC3 peptide L67Q = target: T19, ApoC3 peptide L67Q
# How it was run: as §1
# ApoC3 peptide F64D = target: T20, ApoC3 peptide F64D
# How it was run: as §1
# ApoC3 peptide K60R = target: T21, ApoC3 peptide K60R
# How it was run: as §1
# ApoC3 peptide V71K = target: T22, ApoC3 peptide V71K
# How it was run: as §1
# ApoC3 peptide E70P = target: T23, ApoC3 peptide E70P
# How it was run: as §1
# ApoC3 peptide K60P = target: T24, ApoC3 peptide K60P
# How it was run: as §1
# ApoC3 peptide E70W = target: T25, ApoC3 peptide E70W
# How it was run: as §1
# ApoC3 peptide W65F = target: T26, ApoC3 peptide W65F
# How it was run: as §1
# ApoC3 peptide F64L = target: T27, ApoC3 peptide F64L
# How it was run: as §1
# ApoC3 peptide W65N = target: T28, ApoC3 peptide W65N
# How it was run: as §1
# ApoC3 peptide E63M = target: T29, ApoC3 peptide E63M
# How it was run: as §1
# ApoC3 peptide F64E = target: T30, ApoC3 peptide F64E
# How it was run: as §1
# ApoC3 peptide S62D = target: T31, ApoC3 peptide S62D
# How it was run: as §1
# ApoC3 peptide K60W = target: T32, ApoC3 peptide K60W
# How it was run: as §1
binder,measurement,setting,value
"Llama antibody 5E5 (antibody, V domains shown, detected with goat anti-human IgG (Fc); also called mAb 5E5) VH: QLQLVESGGGLVQPGGSLRLSCAASGFTFGTYSMRWVRQVPRKALEWVSSISTDGGGTAYRDSVKGRFTISRDNAKNTLYLQMNNLKPEDTAIYYCVIAGYSDWGQGTQVTVSS VL: ATMLTQSPGSLSVVPGESASISCKTSQGLVHSDGKTYFYWFLQKPGQSPQQLIYQVSNRASGVPDRFTGSGSGTDFTLKISGVKAEDAGVYYCAQGTYYPHTFGSGTRLEIK",% of binding to wild-type peptide,ApoC3 peptide P69A,25.7%
same,% of binding to wild-type peptide,ApoC3 peptide K60T,177%
same,% of binding to wild-type peptide,ApoC3 peptide P69Q,24.3%
same,% of binding to wild-type peptide,ApoC3 peptide W65A,0%
same,% of binding to wild-type peptide,ApoC3 peptide F61K,13.5%
same,% of binding to wild-type peptide,ApoC3 peptide V71R,57.3%
same,% of binding to wild-type peptide,ApoC3 peptide E70D,82.9%
same,% of binding to wild-type peptide,ApoC3 peptide P69S,86.9%
same,% of binding to wild-type peptide,ApoC3 peptide D66T,0%
same,% of binding to wild-type peptide,ApoC3 peptide L67C,0%
same,% of binding to wild-type peptide,ApoC3 peptide D66A,0%
same,% of binding to wild-type peptide,ApoC3 peptide V71D,111%
same,% of binding to wild-type peptide,ApoC3 peptide F64M,132%
same,% of binding to wild-type peptide,ApoC3 peptide E63P,81.2%
same,% of binding to wild-type peptide,ApoC3 peptide E70Y,50.7%
same,% of binding to wild-type peptide,ApoC3 peptide E70H,50.5%
same,% of binding to wild-type peptide,ApoC3 peptide D66V,0%
same,% of binding to wild-type peptide,ApoC3 peptide D66H,0%
same,% of binding to wild-type peptide,ApoC3 peptide L67Q,3.99%
same,% of binding to wild-type peptide,ApoC3 peptide F64D,259%
same,% of binding to wild-type peptide,ApoC3 peptide K60R,112%
same,% of binding to wild-type peptide,ApoC3 peptide V71K,91.1%
same,% of binding to wild-type peptide,ApoC3 peptide E70P,55.2%
same,% of binding to wild-type peptide,ApoC3 peptide K60P,205%
same,% of binding to wild-type peptide,ApoC3 peptide E70W,35.4%
same,% of binding to wild-type peptide,ApoC3 peptide W65F,5.5%
same,% of binding to wild-type peptide,ApoC3 peptide F64L,118%
same,% of binding to wild-type peptide,ApoC3 peptide W65N,0%
same,% of binding to wild-type peptide,ApoC3 peptide E63M,13.1%
same,% of binding to wild-type peptide,ApoC3 peptide F64E,283%
same,% of binding to wild-type peptide,ApoC3 peptide S62D,0%
same,% of binding to wild-type peptide,ApoC3 peptide K60W,41.9%
